Data published in paper PMC10806181.
Where two headings read alike, the source gives them in different places.

Tests used:
[1] = molecular target: Sho-Stl, enzymatically biotinylated on a C-terminal Avi-tag (Staphylococcus hominis); test: BLI
[2] = molecular target: Stl master repressor of the Staphylococcus aureus SaPIbov1 pathogenicity island (Staphylococcus aureus (SaPIbov1)); test: BLI + other: steady state dUTPase activity assay; dimer to monomers; rough estimate of KDIM from the BLI KD and the remaining activity of 50 nM human dUTPase at 200 and 300 nM Stl, assuming no competition of substrate binding
[3] = molecular target: human dUTPase, enzymatically biotinylated on an N-terminal Avi-tag (human); test: BLI
[4] = molecular target: Stl master repressor of the Staphylococcus aureus SaPIbov1 pathogenicity island (Staphylococcus aureus (SaPIbov1)); test: BLI; dimer to monomers; KDIM estimated by probing dimerization constants until the ka values of the two BLI set-ups (Stl or human dUTPase on the sensor) were close to equal
[5] = molecular target: Stl repressor of the Staphylococcus hominis ShoCI794_SEPI pathogenicity island (Staphylococcus hominis); test: BLI + other: steady state dUTPase activity assay; dimer to monomers; rough estimate of KDIM from the BLI KD and the remaining activity of 50 nM human dUTPase at 200 and 300 nM Stl, assuming no competition of substrate binding
[6] = molecular target: Stl repressor of the Staphylococcus hominis ShoCI794_SEPI pathogenicity island (Staphylococcus hominis); test: SEC; gelfiltration of Sho-Stl (Fig. S1)
[7] = molecular target: Mycobacterium tuberculosis dUTPase, enzymatically biotinylated on an N-terminal Avi-tag (Mycobacterium tuberculosis) (UniProt P9WNS5); test: BLI
[8] = molecular target: Stl repressor of the Staphylococcus hominis ShoCI794_SEPI pathogenicity island (Staphylococcus hominis); test: cross-linking; chemical crosslinking of Sho-Stl in solution (Fig. S1)
[9] = molecular target: Sho-Stl, enzymatically biotinylated on a C-terminal Avi-tag (Staphylococcus hominis); test: BLI; remark: listed apart in the source
[10] = molecular target: Sho-Stl-NDY bound to the streptavidin sensor (Staphylococcus hominis); test: BLI
[11] = molecular target: Sa-Stl, enzymatically biotinylated on a C-terminal Avi-tag (Staphylococcus aureus (SaPIbov1)); test: BLI

Mycobacterium tuberculosis dUTPase (from UniProt P9WNS5 1-154) (enzyme)
Kd [1]: 0.013 nM | koff [1]: 2.9e-07 s⁻¹ | kon [1]: 22000 M⁻¹ s⁻¹

Stl master repressor of the Staphylococcus aureus SaPIbov1 pathogenicity island (natural protein)
Kd [2]: 0.001 nM | Kd [3]: 9.75 nM | koff [3]: 0.00065 s⁻¹ | kon [3]: 67000 M⁻¹ s⁻¹ | Kd [4]: 0.12 nM

Stl repressor of the Staphylococcus hominis ShoCI794_SEPI pathogenicity island (natural protein)
Kd [5]: 0.001 nM | stoichiometry N [6]: 2 | Kd [7]: 35 nM | koff [7]: 0.00041 s⁻¹ | kon [7]: 12000 M⁻¹ s⁻¹ | steady state dUTPase enzyme activity of 50 nM human dUTPase at 200 nM and 300 nM Sho-Stl (remaining activity); Sho-Stl does not inhibit the human dUTPase (% remaining activity) (human dUTPase (human)): 100 | stoichiometry N [8]: 2

human dUTPase (enzyme)
koff [9]: 0.00025 s⁻¹ | Kd [10]: 7.62 nM | koff [10]: 0.00024 s⁻¹ | kon [10]: 31000 M⁻¹ s⁻¹ | Kd [1]: 4.54 nM | koff [1]: 0.00023 s⁻¹ | kon [1]: 52000 M⁻¹ s⁻¹ | Kd [11]: 0.18 nM | koff [11]: 0.00027 s⁻¹ | kon [11]: 1.5e+06 M⁻¹ s⁻¹
